This is an account of results in patent publication US20090169473A1, “DIAGNOSTIC AGENT AND THERAPEUTIC AGENT FOR DISEASE ASSOCIATED WITH HEPATOCYTE GROWTH FACTOR RECEPTOR” (FUJIFILM RI PHARMA CO., LTD., priority 2005, published 2009).

A short description of assay [1]: Heparin-binding activity by heparin affinity column HPLC. Particulars: for NaCl concentration at elution from heparin column: TSK-gel Heparin-5PW, linear gradient 0 to 2M NaCl, pH 7.5, room temperature. The protocol: The heparin-binding activity of [^125I]HGF(11-83)-NH2 (73 aa) produced in Example 1 was determined with high-performance liquid chromatography employing a heparin column. hrHGF (PEPTIDE INSTITUTE, INC.), having a high heparin-binding activity, was used as a positive control.
<High-Performance Liquid Chromatography Conditions>
Column: TSK-gel Heparin-5PW (0.75×7.5 cm): product of TOHSO
solution A: 10 mM Na phosphate buffer (pH 7.5);
solution B: 10 mM Na phosphate buffer (pH 7.5)+2M NaCl;
0 min to 3 min: solution A 100%
3 min to 30 min: linear gradient solution B 0% to 100%
Temperature: room temperature (about 25° C.)

Assay [2] concerns HGF receptor expression site (infarct border zone). Briefly: Dual nuclide autoradiography in myocardial ischemia model rats. As to conditions: 60 MBq femoral vein. The assay is classed as in vivo, CD(SD) IGS rats. The protocol:
CD(SD) IGS rats (10-week-old) were anesthetized by intraperitoneally administering pentobarbital Na (35 mg/kg). After tracheostomy, an artificial respirator was attached to the rat. The left chest was opened, and an electrocardiogram was measured before coronary ligation. The coronary artery and its peripheral tissue (surrounding several millimeters) were ligated with suture, and ischemic state was determined on the basis of ST rise and recorded by an electrocardiogram. After recording, the chest was closed, and the trachea and the skin were sutured.
Three days after production of the myocardial ischemia model, a blood flow imaging agent ^99mTc-MIBI (Cardiolight Injection; DAIICHI RADIOISOTOPE LABS., LTD.) and [^125I]HGF(11-83)-NH2 (73 aa) were administered to each model rat. Blood flow was assessed through dual nuclide autoradiography and HE staining. ^99mTc-MIBI was administered at 60 MBq through a femoral vein. […] On the day of the experiment, the sample was affixed to an imaging plate for 30 minutes, and a ^99mTc-MIBI accumulation image was recorded by means of a bio-imaging analyzer BAS-1800 (FIG. 9). After 7-days attenuation period for ^99mTc for seven days, the sample was set again to the imaging plate for seven days, and a [^125I]HGF(11-83)-NH2 (73 aa) accumulation image was recorded by means of a bio-imaging analyzer BAS-1800 (FIG. 10).

Assay [3] has the same test system. As to the kind of experiment: Pinhole-SPECT imaging in myocardial ischemia model rats. Format: in vivo, Wistar rats. As to conditions: 90 MBq left femoral vein. As to the method:
Wistar rats (8-week-old) were anesthetized with isoflurane (Forane (R), Abbott). After tracheostomy, an artificial respirator connected to an anesthetizer was attached to each rat. The left chest was opened, and an electrogardiogram was measured before coronary ligation. The coronary artery and its peripheral tissue were ligated with suture. During ligation, nylon filament was placed as a spacer between the coronary artery and the suture in order to weaken the ligation strength so as not to completely intercept the blood flow. Ischemic state was determined on the basis of ST rise and recorded by an electrocardiogram. After recording, the left chest was closed, and the trachea and the skin were sutured.
Under inhalation anesthesia with isoflurane, ^99mTc-MIBI (90 MBq) was injected into the left femoral vein of each myocardial ischemia model rat. Subsequently, [^123I]HGF(11-83)-NH2 (73 aa) (100 MBq) prepared in a manner similar to that of Example 2 was administered through the right femoral vein. Thirty minutes after the administration, pinhole-SPECT imaging was conducted using a gamma camera (PRISM 2000, Shimadzu Corporation) (Imaging conditions: pinhole collimator, matrix sizes: 256×256, Mag 1.0, energy windows ^99mTc: 140 keV 10% and ^123I: 159 keV 10%, 3° 60 sec/step). […]

Assay [4] concerns c-Met-expressed McA-RH7777 cells (rat-origin liver cancer cells) tumor. Briefly: Accumulation in c-Met expressing tumor of implanted mice, autoradiography. Particulars: compared with anti-c-Met antibody (SP-260) immunohistochemical staining of serial sections. The assay is classed as in vivo, nude mice (BALB/c nu/nu). As to the method:
c-Met-specific accumulation of [^125I]HGF(11-83)-NH2 (73 aa) in a tumor was observed by autoradiography and immunohistostaining in mice subcutaneously implanted c-Met expressing cancer cells.
3. Observation of c-Met-Specific Accumulation of [^125I]HGF(11-83)-NH2 (73 aa) in a Tumor of Mice Subcutaneously Implanted c-Met Expressing Cancer Cells by Autoradiography and Immunohistostaining
A suspension of c-Met-expressed McA-RH7777 cells (rat-origin liver cancer cells) (200 μL, 2.0×10^6 cells) was subcutaneously injected to a right hindlimb of 6-week-old nude mice (BALB/c nu/nu: Japan SLC, Inc.). On day 9 (tumor volume: […] (McA-RH7777 cells)), the aforementioned labeled HGF-fragment (370 kBq/100 μL) was intravenously administered to each mouse. The tumor was isolated with muscles surrounding the tumor 15 minutes after administration, and frozen sections were prepared. Each frozen section was affixed to an imaging plate (Fuji Photo Film Co., Ltd) for seven days, and a [^125I]HGF(11-83)-NH2 (73 aa) accumulation image was observed by means of a bio-imaging analyzer BAS-1800 (Fuji Photo Film Co., Ltd) (FIG. 5). […] Serial frozen sections were subjected to hematoxylin-eosin (HE) staining (FIG. 6) and immunohistochemical staining with anti-c-Met antibody (SP-260) (FIG. 7).

In assay [5] the target is T1, HGF receptor of HuCCT1 cells (Homo sapiens, UniProt P08581).
T1 construct: c-Met-expressing HuCCT-1 cells (human-origin cholangiocarcinoma cells); endogenous in cells; host or cells: HuCCT-1 (human cholangiocarcinoma cells)
Briefly: Binding assay on HuCCT-1 cells with inhibition by hrHGF. The protocol:
Inhibition of binding of [^125I]HGF(11-83)-NH2 (73 aa) to c-Met-expressing HuCCT-1 cells (human-origin cholangiocarcinoma cells) by human recombinant HGF (hrHGF) was determined by the binding assay.
Specifically, a suspension of HuCCT-1 cells (100 μL, (1.5×10^5 cells)) prepared for a binding inhibition test was placed in an Eppendorf tube whose inner surface had been coated with bovine serum albumin (BSA), and a solution of hrHGF (PEPTIDE INSTITUTE, INC.) (50 μL, final concentration: 379 nM) was added to the tube. A negative control was prepared by adding a binding buffer (0.2% BSA, 20 mM HEPES Hanks' solution, pH 7.0) (50 μL) instead of the rhHGF solution. To the samples, 0.758 nM [^125I]HGF(11-83)-NH2 (73 aa) solution (50 μL) (final concentration: 0.190 nM, ratio by amount to hrHGF: 1:2,000) was added. Each Eppendorf tube containing HuCCT-1 cells was stirred and incubated at room temperature for one hour, followed by centrifuged at 4° C. (3,000 rpm, 3 min) to precipitate the cells. The supernatant was removed by means of an aspirator. The cells were stirred with an ice-cooled binding buffer (500 μL), and the mixture was centrifuged (3,000 rpm, 3 min). The procedure was repeated thrice. The radioactivity of the Eppendorf tube containing HuCCT-1 cells was measured by means of a gamma counter. The average and the standard deviation of the radioactivity (cpm) were calculated for the samples to which the hrHGF solution had been added (hrHGF(+)) and for the samples to which the binding buffer had been added (hrHGF(−)). The difference between the averages was assessed through the Student's t-test.

T1 sequence (P08581 25-307 limits assumed): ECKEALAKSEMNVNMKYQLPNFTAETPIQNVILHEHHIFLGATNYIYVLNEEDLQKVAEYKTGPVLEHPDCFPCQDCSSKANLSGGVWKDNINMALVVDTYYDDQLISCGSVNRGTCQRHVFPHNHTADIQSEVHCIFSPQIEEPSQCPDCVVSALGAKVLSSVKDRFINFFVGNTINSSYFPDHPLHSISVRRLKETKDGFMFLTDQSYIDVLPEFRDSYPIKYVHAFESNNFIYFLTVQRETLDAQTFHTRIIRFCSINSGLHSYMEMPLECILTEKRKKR
T1 sequence (P08581 308-1390 limits assumed): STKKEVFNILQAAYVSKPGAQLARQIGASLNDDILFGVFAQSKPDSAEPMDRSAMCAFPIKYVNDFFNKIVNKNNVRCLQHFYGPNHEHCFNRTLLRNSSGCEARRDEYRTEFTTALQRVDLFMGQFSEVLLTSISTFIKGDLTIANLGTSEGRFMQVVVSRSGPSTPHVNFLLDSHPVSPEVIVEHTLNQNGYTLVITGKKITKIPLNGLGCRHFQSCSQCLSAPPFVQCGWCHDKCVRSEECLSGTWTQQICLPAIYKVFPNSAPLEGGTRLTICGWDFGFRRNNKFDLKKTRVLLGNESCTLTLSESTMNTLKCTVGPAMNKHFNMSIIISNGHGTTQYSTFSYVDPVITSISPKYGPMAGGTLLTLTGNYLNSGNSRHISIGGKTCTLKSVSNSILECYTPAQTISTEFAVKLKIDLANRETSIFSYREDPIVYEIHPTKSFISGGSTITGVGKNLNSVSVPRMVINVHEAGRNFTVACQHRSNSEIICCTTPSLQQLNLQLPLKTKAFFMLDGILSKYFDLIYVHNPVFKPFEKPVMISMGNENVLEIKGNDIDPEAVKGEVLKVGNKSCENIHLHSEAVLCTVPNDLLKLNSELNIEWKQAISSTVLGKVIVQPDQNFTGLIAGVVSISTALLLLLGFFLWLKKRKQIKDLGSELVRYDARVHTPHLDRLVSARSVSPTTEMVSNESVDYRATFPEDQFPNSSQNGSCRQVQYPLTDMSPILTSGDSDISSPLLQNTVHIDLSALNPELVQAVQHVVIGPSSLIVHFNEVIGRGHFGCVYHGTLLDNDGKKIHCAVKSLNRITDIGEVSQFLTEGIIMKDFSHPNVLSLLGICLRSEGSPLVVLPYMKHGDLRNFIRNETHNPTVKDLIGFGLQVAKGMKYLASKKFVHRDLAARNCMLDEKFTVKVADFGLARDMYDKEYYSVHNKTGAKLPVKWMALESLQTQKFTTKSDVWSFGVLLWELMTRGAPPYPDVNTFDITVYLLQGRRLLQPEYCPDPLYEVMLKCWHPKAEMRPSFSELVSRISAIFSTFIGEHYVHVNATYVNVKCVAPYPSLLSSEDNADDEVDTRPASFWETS

“hrHGF: human recombinant HGF (PEPTIDE INSTITUTE, INC.), positive control with high heparin-binding activity [reference compound]”: in assay [1], the “NaCl concentration at elution from heparin column” value was “about 1.5 M”.

Consider `[99Tc].[C-]#[N+]CC(C)(C)OC.[C-]#[N+]CC(C)(C)OC.[C-]#[N+]CC(C)(C)OC.[C-]#[N+]CC(C)(C)OC.[C-]#[N+]CC(C)(C)OC.[C-]#[N+]CC(C)(C)OC` [^99mTc-MIBI], for which, in assay [2], the “Accumulation at the infarct border zone (autoradiography)” value was “reduced accumulation”. Besides, the “Accumulation at the infarct border zone (pinhole-SPECT)” value in assay [3] was “reduced accumulation”.

B1: [^125I]HGF(11-83)-NH2 (73 aa): labeled product prepared through directly introducing 125I into HGF(11-83)-NH2 (73 aa) (peptide)
peptide: FKKSAKTTLIKIDPALKIKTKKVNTADQCANRCTRNKGLPFTCKAFVFDKARKQCLWFPFNSMSSGVKKEFGH
With B1, the “NaCl concentration at elution from heparin column” value in assay [1] was “about 1.3 M”. In assay [1] (from the peak area ratios), the “Portion of the sample with strong heparin-binding activity” value is “about 80%”. The “Area ratio of the heparin-binding peak” value in assay [1] (peak at 20.3 min, other peaks are free 125I and decomposed or denatured peptide) is 78.1%. Further, the “Specificity of accumulation in tumor” value in assay [4] is given as “c-Met-specific”. In addition, the “Radioactivity bound to HuCCT1 cells, hrHGF(+) samples” value in assay [5] (0.190 nM labeled peptide with 379 nM hrHGF, room temperature, one hour, mean±SD) is reported as 20916.9±1574.2 cpm. The “Radioactivity bound to HuCCT1 cells, hrHGF(−) samples” value in assay [5] (0.190 nM labeled peptide, room temperature, one hour, mean±SD) stood at 26136.2±2580.8 cpm. Besides, the “Reduction of binding to the cells by addition of hrHGF” value in assay [5] (hrHGF 379 nM, 2,000-fold mole concentration, P=0.040) is reported as 20%.
